Molecular target: CCR5 on ThP1 human monocytes (human) (UniProt P51681)
Sequence (P51681 whole entry): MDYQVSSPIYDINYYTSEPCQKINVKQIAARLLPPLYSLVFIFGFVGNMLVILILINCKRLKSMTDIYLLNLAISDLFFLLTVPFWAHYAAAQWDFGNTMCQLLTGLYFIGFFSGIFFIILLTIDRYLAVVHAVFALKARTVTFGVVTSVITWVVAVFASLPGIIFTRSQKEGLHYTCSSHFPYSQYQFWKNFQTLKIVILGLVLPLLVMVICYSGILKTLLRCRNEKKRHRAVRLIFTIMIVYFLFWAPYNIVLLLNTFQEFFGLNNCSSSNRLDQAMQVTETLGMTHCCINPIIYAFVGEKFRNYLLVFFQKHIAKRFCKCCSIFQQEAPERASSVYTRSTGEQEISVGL

native form murine CCL4 (from UniProt P14097 24-92) (ligand)
EC50, calcium flux (RFU) in ThP1 monocytes [panel D]: 6.3 nM

Reference: US20260049115A1
